“And” between values parts separate entries of the source, which are not always exact repeats. Identical values can stand only once.
How the values were obtained:
[1] = biological target: the molecule itself; experiment: cryo-EM structure; purified terminase complex (1 mg/mL), apo or with ADP•BeF3 and pac2 DNA (58 bp; DNA not visible); hexameric and dodecameric assemblies, block-based reconstruction of one terminase complex
[2] = biological target: the molecule itself; experiment: AUC; sedimentation velocity, Beckman XL-I, 20 °C, 20 mmol/L Hepes, 300 mmol/L NaCl, pH 7.5, A280 ~0.8, 20,000 rpm; shown with SDS-PAGE and electron microscopy (Fig. 1B)

B1: HSV1-pUL15 (residues 1–737), ATPase/terminase subunit of the herpesvirus terminase complex (natural protein)
chain: MFGQQLASDVQQYLERLEKQRQLKVGADEASAGLTMGGDALRVPFLDFATATPKRHQTVVPGVGTLHDCCEHSPLFSAVARRLLFNSLVPAQLKGRDFGGDHTAKLEFLAPELVRAVARLRFKECAPADVVPQRNAYYSVLNTFQALHRSEAFRQLVHFVRDFAQLLKTSFRASSLTETTGPPKKRAKVDVATHGRTYGTLELFQKMILMHATYFLAAVLLGDHAEQVNTFLRLVFEIPLFSDAAVRHFRQRATVFLVPRRHGKTWFLVPLIALSLASFRGIKIGYTAHIRKATEPVFEEIDACLRGWFGSARVDHVKGETISFSFPDGSRSTIVFASSHNTNGIRGQDFNLLFVDEANFIRPDAVQTIMGFLNQANCKIIFVSSTNTGKASTSFLYNLRGAADELLNVVTYICDDHMPRVVTHTNATACSCYILNKPVFITMDGAVRRTADLFLADSFMQEIIGGQARETGDDRPVLTKSAGERFLLYRPSTTTNSGLMAPDLYVYVDPAFTANTRASGTGVAVVGRYRDDYIIFALEHFFLRALTGSAPADIARCVVHSLTQVLALHPGAFRGVRVAVEGNSSQDSAVAIATHVHTEMHRLLASEGADAGSGPELLFYHCEPPGSAVLYPFFLLNKQKTPAFEHFIKKFNSGGVMASQEIVSATVRLQTDPVEYLLEQLNNLTETVSPNTDVRTYSGKRNGASDDLMVAVIMAIYLAAQAGPPHTFAPITRVS
notes: pUL15 of herpes simplex virus 1 (HSV1), tripartite terminase subunit 3; construct printed as residues 1–737, while the results say pUL15 is 735 residues in length (domains end at 735); Cloned in pFastBac-HTA; No tag cleavage is described; also called ATPase/terminase pUL15; source: Sf9, co-infected with two recombinant baculoviruses (co-expressed with pUL28 and pUL33), purified (Ni-NTA, Superose …)
binding result [1]: binds

B2: herpesvirus terminase complex (heterotrimer of pUL15, pUL28 and pUL33), wild type (complex)
chain 1: MFGQQLASDVQQYLERLEKQRQLKVGADEASAGLTMGGDALRVPFLDFATATPKRHQTVVPGVGTLHDCCEHSPLFSAVARRLLFNSLVPAQLKGRDFGGDHTAKLEFLAPELVRAVARLRFKECAPADVVPQRNAYYSVLNTFQALHRSEAFRQLVHFVRDFAQLLKTSFRASSLTETTGPPKKRAKVDVATHGRTYGTLELFQKMILMHATYFLAAVLLGDHAEQVNTFLRLVFEIPLFSDAAVRHFRQRATVFLVPRRHGKTWFLVPLIALSLASFRGIKIGYTAHIRKATEPVFEEIDACLRGWFGSARVDHVKGETISFSFPDGSRSTIVFASSHNTNGIRGQDFNLLFVDEANFIRPDAVQTIMGFLNQANCKIIFVSSTNTGKASTSFLYNLRGAADELLNVVTYICDDHMPRVVTHTNATACSCYILNKPVFITMDGAVRRTADLFLADSFMQEIIGGQARETGDDRPVLTKSAGERFLLYRPSTTTNSGLMAPDLYVYVDPAFTANTRASGTGVAVVGRYRDDYIIFALEHFFLRALTGSAPADIARCVVHSLTQVLALHPGAFRGVRVAVEGNSSQDSAVAIATHVHTEMHRLLASEGADAGSGPELLFYHCEPPGSAVLYPFFLLNKQKTPAFEHFIKKFNSGGVMASQEIVSATVRLQTDPVEYLLEQLNNLTETVSPNTDVRTYSGKRNGASDDLMVAVIMAIYLAAQAGPPHTFAPITRVS
chain 2: MAAPVSEPTVARQKLLALLGQVQTYVFQIELLRRCDPHIGRGKLPQLKLNALQVRALRRRLRPGLEAQAGAFLTPLSVTLELLLEYAWREGERLLGSLETFATAGDVAAFFTETMGLARPCPYHQRVRLDTYGGTVHMELCFLHDVENFLKQLNYCHLITPSRGATAALERVREFMVGAVGSGLIVPPELSDPSHPCAVCFEELCVTANQGATIARRLADRICNHVTQQAQVRLDANELRRYLPHAAGLSDADRARALSVLDHALARTAGGDGQPHPSPENDSVRKEADALLEAHDVFQATTPGLYAISELRFWLASGDRAGQTTMDAFASNLTALARRELQQETAAVAVELALFGRRAEHFDRAFGSHLAALDMVDALIIGGQATSPDDQIEALIRACYDHHLTTPLLRRLVSPEQCDEEALRRVLARMGAGGAADAPKGGAGPDDDGDRVAVEEGARGLGAPGGGGEDEDRRRGPGGQGPETWGDIATQAAADVRERRRLYADRLTKRSLASLGRCVREQRGELEKMLRVSVHGEVLPATFAAVANGFAARARFCALTAGAGTVIDNRSAPGVFDAHRFMRASLLRHQVDPALLPSITHRFFELVNGPLFDHSTHSFAQPPNTALYYSVENVGLLPHLKEELARFIMGAGGSGADWAVSEFQRFYCFDGISGITPTQRAAWRYIRELIIATTLFASVYRCGELELRRPDCSRPTSEGRYRYPPGVYLTYDSDCPLVAIVESAPDGCIGPRSVVVYDRDVFSILYSVLQHLAPRLPDGGHDGPP
chain 3: MAGREGRTRQRTLRDTIPDCALRSQTLESLDARYVSRDGAHDAAVWFEDMTPAELEVVFPTTDAKLNYLSRTQRLASLLTYAGPIKAPDDAAAPQTPDTACVHGELLAAKRERFAAVINRFLDLHQILRG
notes: pUL15 of herpes simplex virus 1 (HSV1); construct printed as residues 1–737, while the results say pUL15 is 735 residues in length; pUL28 of herpes simplex virus 1 (HSV1); construct printed as residues 1–787; pUL33 of herpes simplex virus 1 (HSV1); construct printed as residues 1–132; One heterotrimer is one subunit of the hexameric ring; the hexamer and dodecamer are written as self-association …
stoichiometry N [2]: 6 and 12
